# Data as given in US20250313625A1 (ELPISCIENCE SUZHOU BIOPHARMA, published 2025).
# Where two headings read alike, the source gives them in different places.
# T1: LAG3 D1 domain extra loop peptide (biotin labelled (site not stated))
# T1 peptide: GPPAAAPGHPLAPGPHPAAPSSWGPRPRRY
# T2: human LAG3 (form used in Octet, Biacore and HDX-MS not given) (human, UniProt P18627 23-450, limits assumed)
# T2 sequence (looked up): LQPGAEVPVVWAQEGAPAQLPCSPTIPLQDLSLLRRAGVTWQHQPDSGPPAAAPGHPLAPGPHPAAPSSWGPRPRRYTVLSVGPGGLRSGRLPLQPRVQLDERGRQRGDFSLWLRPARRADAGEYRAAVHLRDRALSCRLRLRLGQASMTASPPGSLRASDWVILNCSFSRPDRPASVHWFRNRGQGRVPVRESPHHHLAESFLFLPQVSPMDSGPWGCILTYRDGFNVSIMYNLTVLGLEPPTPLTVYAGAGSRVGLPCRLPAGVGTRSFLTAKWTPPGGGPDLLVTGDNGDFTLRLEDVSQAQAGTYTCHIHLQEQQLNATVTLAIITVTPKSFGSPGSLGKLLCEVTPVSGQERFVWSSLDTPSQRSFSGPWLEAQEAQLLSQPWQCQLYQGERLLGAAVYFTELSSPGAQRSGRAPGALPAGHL
# T3: human LAG3, full length, stably expressed on cells (human, UniProt P18627 23-525)
# T3 construct: whole, on cells; also called CHOK1-human LAG3
# T3 sequence (looked up): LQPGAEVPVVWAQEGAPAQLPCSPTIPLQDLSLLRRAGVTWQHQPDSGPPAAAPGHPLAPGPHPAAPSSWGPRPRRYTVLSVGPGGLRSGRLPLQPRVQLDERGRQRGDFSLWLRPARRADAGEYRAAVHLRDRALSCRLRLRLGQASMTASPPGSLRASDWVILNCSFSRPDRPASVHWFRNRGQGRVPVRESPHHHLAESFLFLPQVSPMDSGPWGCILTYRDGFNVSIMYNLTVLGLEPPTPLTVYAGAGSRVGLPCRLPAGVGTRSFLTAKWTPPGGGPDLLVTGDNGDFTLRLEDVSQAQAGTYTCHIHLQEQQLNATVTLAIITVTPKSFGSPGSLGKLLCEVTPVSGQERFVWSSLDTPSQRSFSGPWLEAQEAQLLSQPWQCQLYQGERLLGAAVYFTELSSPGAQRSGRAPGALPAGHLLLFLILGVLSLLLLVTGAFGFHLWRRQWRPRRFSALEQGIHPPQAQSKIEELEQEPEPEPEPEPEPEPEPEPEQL
# T4: human LAG3 ECD recombinant protein (plate coated, tag not stated) (human, UniProt P18627 23-450)
# T4 construct: extracellular domain
# T4 sequence (looked up): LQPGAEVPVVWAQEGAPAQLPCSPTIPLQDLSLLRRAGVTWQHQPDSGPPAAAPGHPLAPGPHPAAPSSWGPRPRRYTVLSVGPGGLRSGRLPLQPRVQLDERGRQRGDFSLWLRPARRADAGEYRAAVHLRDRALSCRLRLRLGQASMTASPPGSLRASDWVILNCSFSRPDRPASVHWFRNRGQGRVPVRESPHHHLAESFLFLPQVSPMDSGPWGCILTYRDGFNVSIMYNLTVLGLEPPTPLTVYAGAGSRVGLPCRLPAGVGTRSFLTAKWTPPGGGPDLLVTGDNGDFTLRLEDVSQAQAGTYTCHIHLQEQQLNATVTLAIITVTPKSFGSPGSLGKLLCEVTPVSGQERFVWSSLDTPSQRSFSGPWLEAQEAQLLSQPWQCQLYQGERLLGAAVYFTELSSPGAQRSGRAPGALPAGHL
# T5: mFc tagged human LAG3 ECD recombinant protein (human, UniProt P18627 23-450)
# T5 construct: extracellular domain; purchased from Biointron; not shown: mouse IgG Fc (mFc) tag
# T5 sequence (looked up): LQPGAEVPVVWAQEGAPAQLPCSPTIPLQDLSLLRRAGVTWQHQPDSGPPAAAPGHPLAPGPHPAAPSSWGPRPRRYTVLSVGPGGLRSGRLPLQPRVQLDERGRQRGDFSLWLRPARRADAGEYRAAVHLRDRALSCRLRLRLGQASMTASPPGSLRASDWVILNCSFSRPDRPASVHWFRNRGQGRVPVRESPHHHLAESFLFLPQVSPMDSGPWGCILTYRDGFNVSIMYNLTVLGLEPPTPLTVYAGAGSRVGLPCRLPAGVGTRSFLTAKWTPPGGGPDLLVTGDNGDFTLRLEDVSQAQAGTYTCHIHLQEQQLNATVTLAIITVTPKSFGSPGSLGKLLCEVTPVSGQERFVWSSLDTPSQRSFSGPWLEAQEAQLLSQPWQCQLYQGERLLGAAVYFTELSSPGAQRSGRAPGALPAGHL
# T6: hFc tagged human LAG3 ECD recombinant protein (human, UniProt P18627 23-450)
# T6 construct: range 23-450; also called biotin labelled hFc tagged human LAG3 ECD; not shown: human IgG Fc tag
# T6 sequence (looked up): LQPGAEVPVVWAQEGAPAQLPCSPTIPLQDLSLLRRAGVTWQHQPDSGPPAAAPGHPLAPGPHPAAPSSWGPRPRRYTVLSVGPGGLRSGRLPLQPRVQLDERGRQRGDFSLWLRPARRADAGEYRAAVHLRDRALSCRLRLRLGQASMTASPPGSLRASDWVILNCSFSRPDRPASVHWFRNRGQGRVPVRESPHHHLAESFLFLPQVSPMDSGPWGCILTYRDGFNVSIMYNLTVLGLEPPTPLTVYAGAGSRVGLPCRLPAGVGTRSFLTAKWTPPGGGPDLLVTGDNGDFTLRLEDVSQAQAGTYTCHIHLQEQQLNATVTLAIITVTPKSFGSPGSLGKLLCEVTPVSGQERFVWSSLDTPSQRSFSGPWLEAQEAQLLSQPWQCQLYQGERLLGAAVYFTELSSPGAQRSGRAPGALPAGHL
# Key:
# [1] = biological target: T1, LAG3 D1 domain extra loop peptide; assay: ELISA format II: biotin labelled LAG3 D1 domain extra loop peptide and antibody co-incubated on streptavidin coated plate, anti-human Fc detection
# Procedure: (§1) In ELISA binding assay of format I (FIG. 9A), biotin labelled LAG3 D1 domain extra loop peptide was incubated with ELISA microplate coated anti-LAG3 antibodies. After washing, HRP labeled anti-SA 2nd antibody (Sigma) was added and incubated at 37° C. for 1 hour. Then, 100 μl/well of TMB solution (Biotechnology) was added. After incubation for 15 minutes at room temperature, the reaction was stopped by the addition of 50 μl of 1N HCl. OD 450 nm was read. In ELISA binding assay of format II (FIG. 9B), biotin labelled LAG3 D1 domain extra loop peptide and anti-LAG3 antibodies were co-incubated in ELISA microplate coated with SA. After washing, HRP labeled anti-human Fc 2nd antibody (Sigma) was added and incubated at 37° C. for 1 hour. Then, 100 μl/well of TMB solution (Biotechnology) was added. After incubation for 15 minutes at room temperature, the reaction was stopped by the addition of 50 μl of 1N HCl. OD 450 nm was read.
# [2] = biological target: T1, LAG3 D1 domain extra loop peptide; assay: ELISA format I: biotin labelled LAG3 D1 domain extra loop peptide on plate coated antibody; axis printed as Ab Conc. (nM)
# Procedure: as §1
# [3] = biological target: T2, human LAG3 (form used in Octet, Biacore …); assay: BLI (Octet), 1:1 fit
# Procedure: (§2) The association and dissociation curves were fit with 1:1 binding model, and the Ka/Kd/KD values for each antibody were calculated.
# as §2
# [4] = biological target: T3, human LAG3, full length, stably …; assay: FACS on 293F cells stably expressing human LAG3
# Procedure: Briefly the antibodies were incubated with 2×10⁵ target cells at 4° C. for 1 hour. After washing, fluorescence labeled anti-mouse IgG 2nd antibody (Life Technologies) was added and incubated at 4° C. for 1 hour. Geometric median fluorescence intensity (MFI) was detected and EC₅₀ was calculated using GraphPad Prism9.0.
# (§3) MFI was detected and EC₅₀ was calculated using GraphPad Prism9.0.
# [5] = biological target: T4, human LAG3 ECD recombinant protein …; assay: competitive ELISA format I: His-FGL1 binding to coated LAG3 ECD
# [6] = biological target: T2, human LAG3 (form used in Octet, Biacore …); assay: BLI (Octet), 1:1 fit; remark: listed apart in the source
# Procedure: The purified chimeric antibodies were characterized for binding affinity against human LAG3 using Bio-Layer Interferometry technology (Octet system). The association and dissociation curves were fit with 1:1 binding model, and the Ka/Kd/KD values for each antibody were calculated.
# [7] = biological target: T5, mFc tagged human LAG3 ECD recombinant …; assay: competitive FACS: mFc tagged human LAG3 ECD binding to MHC II on Raji cells
# Procedure: (§4) Activity of the purified chimeric antibodies to block LAG3 and MHC II interaction was determined by competitive FACS assay. […] After washing, dye labeled anti-mouse Fc 2nd antibody (Sigma) was added and incubated at 37° C. for 1 hour. Fluorescence intensity was detected.
# [8] = biological target: T5, mFc tagged human LAG3 ECD recombinant …; assay: competitive FACS: mFc-LAG3 ECD binding to Raji cells (MHC II)
# Procedure: as §4
# [9] = biological target: T5, mFc tagged human LAG3 ECD recombinant …; assay: competitive FACS: mFc tagged human LAG3 ECD binding to MHC II on Raji cells; remark: listed apart in the source
# Procedure: as §4
# [10] = biological target: T5, mFc tagged human LAG3 ECD recombinant …; assay: competitive ELISA: mFc tagged human LAG3 ECD binding to plate coated LSECtin ECD
# Procedure: Activity of the purified chimeric antibodies to block LAG3 and LSECtin interaction was determined by competitive ELISA assay. […] After washing, HRP labeled anti-mouse Fc 2nd antibody (Sigma) was added and incubated at 37° C. for 1 hour. Then, 100 μl/well of TMB solution (Biotechnology) was added. After incubation for 15 minutes at room temperature, the reaction was stopped by the addition of 50 μl of 1N HCl. OD 450 nm was read.
# [11] = biological target: T6, hFc tagged human LAG3 ECD recombinant …; assay: competitive ELISA format II: biotin hFc-LAG3 ECD binding to coated His-FGL1
# Procedure: After washing, HRP labeled anti-His 2nd antibody (Sigma) was added and incubated at 37° C. for 1 hour. Then, 100 μl/well of TMB solution (Biotechnology) was added. After incubation for 15 minutes at room temperature, the reaction was stopped by the addition of 50 μl of 1N HCl. OD 450 nm was read. […] After washing, HRP labeled anti-SA 2nd antibody (Sigma) was added and incubated at 37° C. for 1 hour. Then, 100 μl/well of TMB solution (Biotechnology) was added. After incubation for 15 minutes at room temperature, the reaction was stopped by the addition of 50 μl of 1N HCl. OD 450 nm was read. […] The competition assay of format III is a competitive FACS assay. […] After washing, dye labeled anti-His 2nd antibody (Sigma) was added and incubated at 37° C. for 1 hour. Fluorescence intensity was detected.
# [12] = biological target: T3, human LAG3, full length, stably …; assay: FACS on CHOK1 cells stably expressing human LAG3
# Procedure: as §3
Kd [3] [nM],koff [3] [s⁻¹],kon [3] [M⁻¹ s⁻¹],EC50 [4] [nM],Kd [6] [nM],koff [6] [s⁻¹],kon [6] [M⁻¹ s⁻¹],%Blocking at 2 nM [7] [%],%Blocking at 4 nM [7] [%],%Blocking at 8 nM [7] [%],IC50 [8] [nM],TOP blocking (%) [8] [%],binding result [2],%Blocking at 4 nM [10] [%],%Blocking at 20 nM [10] [%],%Blocking at 100 nM [10] [%],IC50 [11] [nM],TOP blocking (%) [11] [%],Binder,other results
–,–,–,–,–,–,–,–,–,–,–,–,–,–,–,–,–,–,"BMS-986016 (antibody, V domains shown) VH: QVQLQQWGAGLLKPSETLSLTCAVYGGSFSDYYWNWIRQPPGKGLEWIGEINHRGSTNSNPSLKSRVTLSLDTSKNQFSLKLRSVTAADTAVYYCAFGYSDYEYNWFDPWGQGTLVTVSS VL: EIVLTQSPATLSLSPGERATLSCRASQSISSYLAWYQQKPGQAPRLLIYDASNRATGIPARFSGSGSGTDFTLTISSLEPEDFAVYYCQQRSNWPLTFGQGTNLEIK",EC50 (read off the curve) [1]: ~0.2 nM; EC50 (read off the curve) [2]: ~0.08 nM
7.7,0.0268,3.48e+06,1.6,3.58,0.00139,389000,9.7,24.1,84.3,4.2,96.4,no binding (tested: about 300 nM),61.6,92.7,97,2,84.5,"029c (antibody, human IgG4, V domains shown, human IgG4 S228P / kappa chimeric antibody; also called chimeric antibody 029; not shown: human kappa light chain constant region (pcDNA3.4-hIgGk vector)) VH: DVKLVESGEDLVKPGGSLKLSCAASGFTFSSYAMSWVRQTPEKRLEWVAYVTSGGDYIYYADTVKGRFTISRDDVRNTLYLQMSSLKSEDTAMYYCTRVAYDYEWYFDVWGTGAPVTVSS VL: DIVMTQSHKFMSTSVGDRVSITCKASQDVTTAVAWYQQKPGQSPKLLIYSASYRYTGVSDRFTGSGSGTDFTFTISSVQAEDLALYYCQQHDSSPWTFGGGTKLEIK",TOP MFI [4]: 416; Blocking ratio at 66.7 nM (%) [5]: 62.6%; %Blocking at 4 nM [9]: 21.5%; %Blocking at 8 nM [9]: 96.7%
5.34,0.00271,508000,15.6,6.52,0.000905,139000,13.7,20.1,76.8,4.2,99.9,no binding (tested: about 300 nM),27.4,91.4,95.6,1.93,82,"021c (antibody, human IgG4, V domains shown, human IgG4 S228P / kappa chimeric antibody; also called chimeric antibody 021; not shown: human kappa light chain constant region (pcDNA3.4-hIgGk vector)) VH: DIQLQESGPGLVKPSQSLSLTCSVTGYSITSGYYWNWIRQFPGNKLEWMGDISYDGGNNYNPSLKNRISITRDTSKNQFFLKLNSVTTEDTATYYCARDITLTGAMDYWGQGTSVTVSS VL: DIVLTQSPASLAVSLGQRATISCRASESVDNYGISFMHWYQQRPGQPPKLLIYRASNLESGIPARFSGSGSRTDFTLTINPVETDDVATYYCQQSNKDPYTFGGGTKLEIK",EC50 [12]: 1.6 nM; TOP MFI [12]: 620
